Target: T1, human C1q (human, UniProt P02745 23-245; P02746 28-253; P02747 29-245)
T1 construct: Human C1q (Sigma) in the ELISA; hC1q coated at 100 nM in the RIA; also called hC1q
Experiment: RIA, 35S-labelled Fc on coated C1q
From the text: IgG1 Fc variants arising from round three outputs of Fcγ1 selections against human C1q using ribosome display, were screened for binding using the primary RIA as described in Jermutus et al. (2001, PNAS 98(1): 75-80). In brief, the Fc region from the plasmid for each variant (96 well format) was PCR amplified to produce a linear DNA template. This template was gel purified and reamplified attaching the T7 promoter sequence for T7 directed in vitro transcription and the resulting mRNA purified on G25 Sephadex columns. For each variant, in vitro translations in the presence of 35S-labelled methionine was performed at 37° C. for 40 mins. The translations were stopped with PBS with 0.05% Tween 20. The translation mixture was incubated on a plate coated with 100 nM hC1q for 2 hours at room temperature. Plates were washed three times in PBS with 0.05% Tween 20 and three times in PBS. The remaining radioactivity was eluted with 0.1M triethylamine and quantified by liquid scintillation counting.

T1 sequence (P02745 23-245 limits assumed, chain 1 of 3): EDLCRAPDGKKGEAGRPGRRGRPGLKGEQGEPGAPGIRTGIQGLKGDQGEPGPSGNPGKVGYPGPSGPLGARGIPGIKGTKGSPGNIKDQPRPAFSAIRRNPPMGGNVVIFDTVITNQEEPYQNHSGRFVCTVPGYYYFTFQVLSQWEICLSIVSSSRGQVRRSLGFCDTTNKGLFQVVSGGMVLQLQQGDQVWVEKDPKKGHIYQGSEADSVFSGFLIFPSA
T1 sequence (P02746 28-253 limits assumed, chain 2 of 3): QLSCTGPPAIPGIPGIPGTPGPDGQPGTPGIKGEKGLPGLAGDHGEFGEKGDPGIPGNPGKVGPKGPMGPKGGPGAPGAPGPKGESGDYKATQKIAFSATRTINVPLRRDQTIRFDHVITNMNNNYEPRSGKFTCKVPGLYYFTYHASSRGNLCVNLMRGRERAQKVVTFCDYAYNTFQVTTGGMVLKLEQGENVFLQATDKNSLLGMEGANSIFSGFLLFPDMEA
T1 sequence (P02747 29-245 limits assumed, chain 3 of 3): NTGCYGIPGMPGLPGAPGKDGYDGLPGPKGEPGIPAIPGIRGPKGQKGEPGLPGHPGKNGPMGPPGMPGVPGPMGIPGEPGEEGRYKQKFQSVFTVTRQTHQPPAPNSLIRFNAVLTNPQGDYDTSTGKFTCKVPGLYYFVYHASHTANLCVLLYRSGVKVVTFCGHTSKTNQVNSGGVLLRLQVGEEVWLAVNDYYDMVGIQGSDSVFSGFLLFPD

RIA for C1q: 1.5 fold over wild-type
B1: Fc polypeptide variant 2F01 (Fcγ1, in vitro translated) (other)
chain: AHTCPPCPAPELLGGPPVFLFPPKPKDTLMIPRTPEVTCVVVDVNHEDPEVKFNWYVDGVEVRNAKTKPREEQYNSTYRVVSVLTVLHQDWLSGKEYKCKVSNKALPAPIEKTISKAKGQPREPQVYTLPPSREEMTKNQVSLTCLVKGLYPSDITVEWESNGQPENDCKTTPPVLDSDGSSFLYSKLTVDKSRWQQGNVFSCSVMHKAPHNHYTQKSLSLSPGE
notes: Fc region only, in vitro translated with 35S-methionine for RIA

From US20100184959A1 (AstraZeneca / MedImmune, published 2010)
